According to patent US20220281997A1 (published 2022):

Assays:
Experiment in all cases: SPR
[1] = biological target: AS588 VHH
[2] = biological target: AS325 VHH
[3] = biological target: AS200 VHH
[4] = biological target: AS988 VHH
[5] = biological target: AS673 VHH
[6] = biological target: AS675 VHH
[7] = biological target: AS656 VHH
[8] = biological target: AS519 VHH
[9] = biological target: AS154 VHH
[10] = biological target: His-tag camel-derived nanobody AS718 VHH-His
Chain of His-tag camel-derived nanobody AS718 VHH-His (VHH, as listed by the source): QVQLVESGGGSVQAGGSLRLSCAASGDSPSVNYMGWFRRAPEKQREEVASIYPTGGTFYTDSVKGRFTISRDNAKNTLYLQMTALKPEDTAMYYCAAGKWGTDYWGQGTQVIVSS

Chain of AS673 VHH (VHH, as listed by the source): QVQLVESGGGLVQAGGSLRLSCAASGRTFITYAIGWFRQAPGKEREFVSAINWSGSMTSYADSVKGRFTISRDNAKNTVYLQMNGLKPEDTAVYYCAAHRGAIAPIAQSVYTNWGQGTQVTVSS
Chain of AS200 VHH (VHH, as listed by the source): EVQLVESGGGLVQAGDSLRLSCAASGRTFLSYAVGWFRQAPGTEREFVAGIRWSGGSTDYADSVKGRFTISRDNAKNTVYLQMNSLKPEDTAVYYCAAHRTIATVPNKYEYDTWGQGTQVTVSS
Chain of AS325 VHH (VHH, as listed by the source): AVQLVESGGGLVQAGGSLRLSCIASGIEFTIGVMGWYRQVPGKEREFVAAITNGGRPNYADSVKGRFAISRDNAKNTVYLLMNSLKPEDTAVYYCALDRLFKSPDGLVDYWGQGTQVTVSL
Chain of AS154 VHH (VHH, as listed by the source): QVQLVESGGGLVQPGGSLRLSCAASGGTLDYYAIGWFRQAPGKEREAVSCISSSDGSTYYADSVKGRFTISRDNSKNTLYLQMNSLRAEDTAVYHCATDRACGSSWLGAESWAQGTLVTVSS
Chain of AS656 VHH (VHH, as listed by the source): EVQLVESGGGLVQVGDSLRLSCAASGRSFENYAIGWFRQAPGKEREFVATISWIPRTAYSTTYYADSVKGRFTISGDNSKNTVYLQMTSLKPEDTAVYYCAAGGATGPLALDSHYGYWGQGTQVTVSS
Chain of AS519 VHH (VHH, as listed by the source): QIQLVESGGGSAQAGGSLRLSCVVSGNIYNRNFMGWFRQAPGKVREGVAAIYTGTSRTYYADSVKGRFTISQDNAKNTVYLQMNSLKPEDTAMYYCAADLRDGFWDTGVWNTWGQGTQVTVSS
Chain of AS988 VHH (VHH, as listed by the source): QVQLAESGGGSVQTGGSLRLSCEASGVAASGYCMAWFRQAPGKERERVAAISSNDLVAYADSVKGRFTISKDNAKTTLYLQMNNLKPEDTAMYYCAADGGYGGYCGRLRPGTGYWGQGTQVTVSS
Chain of AS675 VHH (VHH, as listed by the source): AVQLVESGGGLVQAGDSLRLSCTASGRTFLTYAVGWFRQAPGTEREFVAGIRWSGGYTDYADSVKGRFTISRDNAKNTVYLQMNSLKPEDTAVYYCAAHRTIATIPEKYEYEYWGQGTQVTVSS
Chain of AS588 VHH (VHH, as listed by the source): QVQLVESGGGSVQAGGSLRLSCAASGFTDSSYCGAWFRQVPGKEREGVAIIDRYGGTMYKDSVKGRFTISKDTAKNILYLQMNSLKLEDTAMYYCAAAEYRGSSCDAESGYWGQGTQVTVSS

- Kd [1]: 7.09 pM
- Kd [2]: 4.04 pM
- Kd [3]: 11.8 pM
- Kd [4]: 7.08 pM
- Kd [5]: 4.36 pM
- Kd [6]: 34.5 pM
- Kd [7]: 1.34 pM
- Kd [8]: 1.66 pM
- Kd [9]: 402 pM
- Kd [10]: 3.47 pM
B1: R166.C5 (antibody, V domains shown)
VH: QSVEESGGRLVTPGTPLTLTCTVSGFSLRNFAMSWVRQAPGKGLEWIGIIYSGGTRDYATWAKGRFTISKTSTTVDLKMTSPTTEDTATYFCARDRSPDYSAAFLLWGQGTLVTVSS
VL: IVMTQTPSSKSVPVGDTVTINCQASESVYSNNHLAWFQQKPGQPPKLLIYSASTLESGVPSRFKGSGSGTQFTLTISGVQCDDAATYYCAGYKSSDTDGTSFGGGTEVVVKG
